Measurements taken from publication doi:10.1101/2020.06.18.159822.
Read-outs that look alike come from different tables or passages of the source.

Assays:
[1] = molecular target: WT HIV-1 BH10 Gag (HIV-1 BH10); assay: native MS
[2] = molecular target: WT HIV-1 BH10 Gag (HIV-1 BH10); assay: native MS; remark: listed apart in the source
[3] = molecular target: HIV-1 BH10 GagΔp6 (HIV-1 BH10); assay: native MS
[4] = molecular target: HIV-1 BH10 GagΔp6 (HIV-1 BH10); assay: native MS; remark: listed apart in the source
WT Gag [5] = molecular target: T1, WT Gag (HIV-1 BH10, UniProt P03347 1-512); assay: native MS
WT Gag [6] = molecular target: T1, WT Gag; assay: fluorescence anisotropy salt titration

Molecule: WT HIV-1 BH10 Gag (natural protein)
- stoichiometry N [1]: 2
- stoichiometry N [2]: 2

Molecule: HIV-1 BH10 GagΔp6 (domain or fragment)
- stoichiometry N [3]: 2
- stoichiometry N [4]: 2

B1: TARpolyA RNA (structured_RNA)
RNA: GGGUCUCUCUGGUUAGACCAGAUCUGAGCCUGGGAGCUCUCUGGCUAACUAGGGAACCCACUGCUUAAGCCUCAAUAAAGCUUGCCUUGAGUGCUCAAAGUAGUG
- binding result (WT Gag [5]): binds

B2: Psi RNA-FTSC (structured_RNA)
RNA: GGUCUCUCGACGCAGGACUCGGCUUGCUGGAGACGGCAAGAGGCGAGGGGCGGCGACUGGUGAGUACGCCAAAAAUUUUGACUAGCGGAGGCUAGAAGGAGAGA
- Kd (WT Gag [6]): 77 µM
